We go through 167 variants from the RNAGym collection of RNA variant scans (doi:10.1073/pnas.2313332121).

The chains are these.
B1: TPR t1 (parent)
chain: GACCAAUCUGCCCUCAGAGCUCGAGAACAUCUUCGGAUGCAGAGGAGGCAGGCUUCGGUGGCGCGAUAGCGCCAACGUCCUCAACCUCCAAUGCAUCCCACCACAUGAUGAUGCCUGAAGAGCCUUGGUUUUUUG

In this series the parent is B1. The experiment in a line: polymerase ribozyme fitness, log enrichment relative to wild type (log ratio); higher = more active; in vitro selection for triplet polymerase activity. The procedure, abridged:
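Mutant libraries of each subunit of a heterodimeric triplet polymerase ribozyme were built by PCR and transcribed. Each library went through one round of in vitro selection in triplicate: annealing with biotinylated primer, partner subunit and triplets, frozen incubation at −7 °C, gel excision of extended constructs, streptavidin-bead capture and RT-PCR. Input and output libraries were Illumina-sequenced; only genotypes with ≥10 input reads and ≥1 read per output were kept. Fitness is log2(genotype enrichment/wild-type enrichment), using inverse-variance-weighted replicate averages.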
For A83G A105G C115U, the “polymerase ribozyme fitness (log ratio)” value was -2.83. In the case of C86G G113U it was -3.98; in that of C86G G113C, -2.62. Next, C86U C115G: -1.57. Next, C82A C85A: -1.3. For the variant A84U C101A U116G A121U, the “polymerase ribozyme fitness (log ratio)” value was -0.796.

As to U87A C102A, the “polymerase ribozyme fitness (log ratio)” value was -2.11. In the case of A83G U129G it was -1.68. Next, C85G C115U: -1.86. Next, U81C C82G G113C C115G A118G: -7.41. In the case of A83C A100U G120A U130C, the “polymerase ribozyme fitness (log ratio)” value was -3.75. In the case of C86G U92C it was -2.6; in that of C82U G110A C115G, -5.29; in that of A84U G110C, -4.16. Next, C82A A111U: -3.3; A84G C85A G127U: -5.16; A84C C88G: -0.958. Next, U87A A108C G110A: -6.14.

For C82U U134G, the “polymerase ribozyme fitness (log ratio)” value amounted to 0.46.

For the variant C85G G122A, the “polymerase ribozyme fitness (log ratio)” value was -1.82. In the case of C82G A91C C115G, the “polymerase ribozyme fitness (log ratio)” value was -2.49. Next, U81C G117A A119U: -3.73. Next, C85A G110A: -2.98. Next, C82A A103U: -6.11; A84U A103U G110C: -3.57.

In the case of C85A G127C, the “polymerase ribozyme fitness (log ratio)” value is -4.59. Next, C85A G127U: -4.56; A83C G117A: -1.33. As for C86U C98U G117C, the “polymerase ribozyme fitness (log ratio)” value is -5.99. On to U87A C104G A111U, for which the “polymerase ribozyme fitness (log ratio)” value is -3.77. In the case of C85G U106C it was -0.939; in that of U81C G93C, -1.57; in that of A83C C115A, 0.0144. Next, C82A U109G: -4.53.

Turning to U81C A83G, the “polymerase ribozyme fitness (log ratio)” value was -1.15. Next, C82G U130A: -1.07; A83C G110C G120C: -5.9; C85U A121G: 1.61. Next, U81C G128U: -2.54; C82G C97U: -1.16; A83U U96A: -0.525. Consider C85G C102U G113U G117A G120C, for which the “polymerase ribozyme fitness (log ratio)” value is -5.52.

For A84G C88U C124U, the “polymerase ribozyme fitness (log ratio)” value came out at 0.679. Next, A83C A111U U134G: -2.14. Turning to U81C A90C U112G, the “polymerase ribozyme fitness (log ratio)” value was -2.24.

Turning to A83G G113U, the “polymerase ribozyme fitness (log ratio)” value was -3.23. Next, C86A U87A: -2.7; U87A C97U C98U G120A: -2.92; A83C C101U: 0.114. Take C85G C123U: the “polymerase ribozyme fitness (log ratio)” value was -0.244. In the case of C82A G93C C115U G122A it was -3.46; in that of A84G U92C U106G G113C, -4.32; in that of C82G C124U, 1.29.

Regarding C82U U96A, the “polymerase ribozyme fitness (log ratio)” value was -1.57. Next, C85U A91C: -2.1; A84C C94A: -1.23; A84U C114U U126G: -6.08. In the case of U87A G117U U129G it was -5.03. In the case of A83U A91C it was -0.743; in that of C82G C86U C102U U112G, -3.94.

On to C86G C97U C115G, for which the “polymerase ribozyme fitness (log ratio)” value was -4.24. In the case of A84U U112A it was 0.956; in that of A84C U130A, -0.44; in that of A84G G117U G135U, -4.65. Next, C86U C98A: -4.48.

Consider A84U G113A U132C G135A, for which the “polymerase ribozyme fitness (log ratio)” value is -1.31. In the case of C85G U112A C115U it was -2.5; in that of C86A C124G G128A, 0.914; in that of U81G C86U G120U U133A, -4.01. With C86G G122U, the “polymerase ribozyme fitness (log ratio)” value was -1.75. Next, C86U C101G: -2.55. In the case of U87A C94A it was -0.438; in that of C85G, -1.74. In the case of C85U it was -0.966; in that of C85A, -1.96; in that of C86A G93C, -2.88. C85A C99U G113A: the “polymerase ribozyme fitness (log ratio)” value is -4.82. Next, C85G C88U C123A: -0.368; A83U U132C: -0.0917; A83G U92C C94A: -4.59. In the case of A83U A108U it was -5.5; in that of C86G C94U G110A U129A, -4.63; in that of U87A C89A A91C A95G G113C, -2.9. As for A83U A91U U92G A111C U130C, the “polymerase ribozyme fitness (log ratio)” value is -3.89.

As for U81G C101A U106A, the “polymerase ribozyme fitness (log ratio)” value is -2.9.

Take C86A A95C: the “polymerase ribozyme fitness (log ratio)” value was -2.08.

Consider U81C C102U, for which the “polymerase ribozyme fitness (log ratio)” value was -2.2. Next, C86G U112C: -1.94; C86U A95C: -1.49; A84U U96A C99G C114A: -6.17.

Consider C86G C101U, for which the “polymerase ribozyme fitness (log ratio)” value was -0.616. In the case of A84G G117U it was -3.75; in that of C82U G113A, -1.1; in that of C85U G113A G120U, -2.7. In the case of A83C U126A it was -1.84. Next, U87A G113C U130A: -2.96; A84C G93A C101U: -1.17. Turning to A83U A100U C123U U125G, the “polymerase ribozyme fitness (log ratio)” value was 0.186. Take C85A C89U U92G G117A: the “polymerase ribozyme fitness (log ratio)” value is -4.94. Next, U81C C115G: -2.02; C85U U106G: -2.74. In the case of C82A G120C it was -0.101; in that of C85A G107A U112G C114U G120U, -7.47; in that of U87A C97U, -0.196. For the variant A83U A95G C104G A105C C115A G117U, the “polymerase ribozyme fitness (log ratio)” value is -5.76.

In the case of C82A G110C, the “polymerase ribozyme fitness (log ratio)” value was -3.97. A84U G93C: the “polymerase ribozyme fitness (log ratio)” value is -1.39. With C82G C102A U112A G120C U125G, the “polymerase ribozyme fitness (log ratio)” value is -4.33. Next, C82U C85A C86U C97A C124G: -5.65; C82G G107A: -6.96; C82U G110U: -1.15. Next, U87A U92G G93U C104A A111G C114U U130C: -7.15; A84U U92G: -3.25.

For A84G A95U C104A A121C, the “polymerase ribozyme fitness (log ratio)” value is -2.33.

On to A84G A91U, for which the “polymerase ribozyme fitness (log ratio)” value is -3.76. Regarding C86A U92A C115A C123G, the “polymerase ribozyme fitness (log ratio)” value is -2.27. In the case of U87A G117C, the “polymerase ribozyme fitness (log ratio)” value is -3.81. Regarding A84C C85G U133C, the “polymerase ribozyme fitness (log ratio)” value is -0.825. In the case of C82A C102A C114U it was -4.27; in that of C82A A84C G110C, -4.7. Consider C85G U96G A105U, for which the “polymerase ribozyme fitness (log ratio)” value was -4.68. Consider A84U C88G C115U U126A, for which the “polymerase ribozyme fitness (log ratio)” value was -3.84.

On to A84U C101G U125G, for which the “polymerase ribozyme fitness (log ratio)” value was -2.42. In the case of A83C C104A C115U it was -4.27; in that of U81G U106G C124U, -5.53; in that of C86U U112G, 0.18. Next, C86U U112C: 0.942; C82G: -0.684; C82U: -0.201. C82A: the “polymerase ribozyme fitness (log ratio)” value is -0.485. Next, C82G A95U A105G: -3.5; U87A C124A: 1.83; U81G A84C U116A G120C: -3.83. Next, A83C G107C: -2.05; U87A: 0.0155; C85U C89G: -1.76. Regarding C82U U133A, the “polymerase ribozyme fitness (log ratio)” value is -0.572. In the case of C85G C88A C101A it was -2.28; in that of C85U C86G A118C, -3.84. In the case of A83C U109C, the “polymerase ribozyme fitness (log ratio)” value was -4.51. As to U87A C88G, the “polymerase ribozyme fitness (log ratio)” value was -1.1. Next, U87A A105G: -2; C82G C86A: -0.475; C85G G113U: -4.31. Next, A83G C85A: -2.68. In the case of A84G G113U G135A it was -4.51; in that of U81G G113C, -4.85. In the case of C82G A119G, the “polymerase ribozyme fitness (log ratio)” value was 0.749. With C82G A119U, the “polymerase ribozyme fitness (log ratio)” value is -0.606. In the case of A83C G113C it was -2.78; in that of A83C G113A, -1.32; in that of C85U C123U, -1.28. In the case of C86G A90C U96C U112A C124A it was -1.78. For the variant C86G A103G, the “polymerase ribozyme fitness (log ratio)” value was -5.43. In the case of A84G C115U it was -2.86; in that of U87A U130A, -0.662. For the variant C86A C104U, the “polymerase ribozyme fitness (log ratio)” value stood at 0.0777.

In the case of C86U G120C, the “polymerase ribozyme fitness (log ratio)” value amounted to 1.51. In the case of A83U G120U it was -1.06; in that of C85U C114U, -3.18.

Take C85A G128U: the “polymerase ribozyme fitness (log ratio)” value is -4.02. As to C86A A103U, the “polymerase ribozyme fitness (log ratio)” value was -4.95. Regarding C85A U87G G120U, the “polymerase ribozyme fitness (log ratio)” value was -0.802. Next, U81C C88A A90U C104G G120U: -7.44; C82G U106A: -0.594; C82U C86G A121G: 1.16. As to C82U A119U, the “polymerase ribozyme fitness (log ratio)” value was -0.592.
